Measured values taken from patent US20220325265A1, “GLUCOCEREBROSIDASE MUTANTS” (Hoffmann-la Roche Inc., priority 2019, published 2022).
Numbering of substitutions follows the chain as printed. In names and notes the source's numbering stands.

B1: M53T/P55T: recombinant human β-glucocerebrosidase variant R495H/M53T/P55T, S2 cells; Seq. Id. No. 7 (protein, listed as Homo sapiens)
chain: ARPCIPKSFGYSSVVCVCNATYCDSFDPPTFPALGTFSRYESTRSGRRMELSTGTIQANHTGTGLLLTLQPEQKFQKVKGFGGAMTDAAALNILALSPPAQNLLLKSYFSEEGIGYNIIRVPMASCDFSIRTYTYADTPDDFQLHNFSLPEEDTKLKIPLIHRALQLAQRPVSLLASPWTSPTWLKTNGAVNGKGSLKGQPGDIYHQTWARYFVKFLDAYAEHKLQFWAVTAENEPSAGLLSGYPFQCLGFTPEHQRDFIARDLGPTLANSTHHNVRLLMLDDQRLLLPHWAKVVLTDPEAAKYVHGIAVHWYLDFLAPAKATLGETHRLFPNTMLFASEACVGSKFWEQSVRLGSWDRGMQYSHSIITNLLYHVVGWTDWNLALNPEGGPNWVRNFVDSPIIVDITKDTFYKQPMFYHLGHFSKFIPEGSQRVGLVASQKNDLDAVALMHPDGSAVVVVLNRSSKDVPLTIKDPAVGFLETISPGYSIHTYLWHRQ
notes: recombinant human β-glucocerebrosidase variant R495H/M53T/P55T, S2 cells; Id; No. 7
B2: imiglucerase (protein, UniProt P04062 40-536, looked up, variant R495H)
Lysosomal acid …: B1 chain with T53M, T55P
modifications: imiglucerase; CHO-produced
notes: Commercially available Cerezyme (imiglucerase, Genzyme), hGCase R495H produced in CHO cells

What was measured:
[1] = pH screening of hGCase variants (activity assay, pH 3.5-8); type: biochemical
Procedure: For all further GCase characterization experiments including the activity assay, 20 μM substrate concentration, 30-40 min incubation time and protein concentrations ranging from 25-100 nM were set as final assay settings to ensure measurements in the linear range. The overall DMSO concentration within the assay was kept at 0.5% (v/v) or even below, since DMSO influences the fluorescent signal with higher concentrations (experimentally tested, data not shown; confirmed by (Urban et al., 2008). Therefore, GCase activity buffer+1% (v/v) DMSO was also used for dilutions (table 2.9). The plate reader SpectraMax i3 (Molecular Devices) including the analysis software SoftMax Pro 6.4 was used for all activity measurements within this work. The program settings were kept the same for all activity runs: kinetic run, measurement temperature: 37° C., PMT Gain: high; flashes per read: 6; read height: 0.73305 mm from plate.
A pH optimum screening was done to observe a possible shift in the pH spectrum of the new variants due to structural modification of the enzymes. Therefore, three different buffers were used, covering a pH range of pH 3.5 to 8. For the screening, buffer substances were chosen after the use for purification buffers. Therefore, following buffers were prepared: Citric acid buffer (20 mM, pH 3.5-5), MES buffer (20 mM, pH 6-6.5) and HEPES buffer (20 mM, pH 7-8). The final protein concentration used for this assay was 75 nM. The activity assay was done as described in section 2.3.5 (table 2.11), merely the buffer was varied.
A possible pH optimum shift due to structural modifications should be examined. Since the GCase enzyme originally occurs within the lysosome, its natural pH optimum is reported to be between pH 4.7-6.0 (Lieberman et al., 2007; Liou et al., 2006; Tan et al., 2014). This could change when including slight modifications in the structure of the molecule. Thus, the mutants were tested within a pH range of 3.5 to 8 for enzymatic activity.

[2] = test system: H4 glioblastoma GBA-KO cells; assay: Reduction of natural substrate GlcSph in H4 GBA-KO cells (LC/MS); type: cell-based, human; details: 48 h, vs untreated H4 GBA-KO cells
Procedure: FIG. 9: Reduction of the natural substrate GlcSph after treatment of H4 glioblastoma GBA-KO cells with hGCase molecules. Treatment concentration (hGCase protein): 1, 10 and 100 nM, respectively. Analysis of substrate levels after 48 h of incubation via LC/MS. H4 wt cells (GCase levels normalized to 100%) and H4 GBA-KO cells (loss of GBA gene) served as control. ^1 measured glucosylsphingosine (GlcSph) levels normalized to total protein amount. ^2 H4 glioblastoma cells with knock-out GBA gene.
(§1) Human H4 glioblastoma cells (H4 cells) were taken as human neuronal model to test purified hGCase variants in a cell-based setup. H4 wild-type cells and untreated H4 GBA-KO cells (knock-out of related GCase GBA gene) were taken as references. After seeding (40000 cells/well) and incubating them for ˜24 h, the GBA-KO cells were treated with 1, 10 and 100 nM of target protein sample and incubated for either 2 h (for uptake and GCase activity measurements) or 48 h (for substrate reduction measurements) at 37° C. with 5% CO2 and constant humidity. After cell-lysis (GCase activity buffer (table 2.6)+0.1% (w/v) Triton X-100+phosphatase (Phospho stop Roche in-house)+protease inhibitor (cOmplete EDTA-free)), the uptake of the enzymes into the cells was evaluated by measuring the hGCase concentration via AlphaLISA (section 2.3.6) as well as the activity after the uptake (section 2.3.5). Samples for substrate reduction determination were hand over to Iris Ruf (SMR, see section 2.7). Due to the loss of the GCase related GBA gene in H4 GBA-KO cells, the natural substrate glucosylsphingosine (GlcSph) accumulates. The reduction of GlcSph levels due to hGCase treatment was evaluated via LC/MS by Iris Ruf (SMR).
(§2) Finally, the cellular uptake, activity and substrate reduction in human neuronal cells were determined to test the mutants' efficacy in a more cellular context. In this work, human H4 glioblastoma wild-type cells (wt) and H4 GBA-KO cells (knock-out of GCase related GBA gene) were used as a Gaucher cell model. H4 GBA-KO cells, which accumulate the natural substrate glucosylsphingosine (GlcSph) due to the loss of the GBA gene, were treated with 1, 10 and 100 nM of hGCase molecules, respectively. Activity and protein concentration (via AlphaLISA) were measured after two hours of incubation after several media wash steps. The reduction of natural substrate GlcSph was analyzed 48 h after cell treatment via LC/MS. The activity measured after uptake into the cells normalized to measured hGCase protein levels is graphed in FIG. 8. The evaluated activities are given as percentage of hGCase activity measured in wt H4 cells, set to 100%.
To determine the enzymes' efficacies, the reduction of accumulated glucosylsphingosine (GlcSph) in H4 GBA-KO cells was investigated.

[3] = test system: H4 glioblastoma GBA-KO cells; assay: GCase activity after uptake into H4 GBA-KO cells, normalized to hGCase protein level; type: cell-based, human; details: 2 h incubation
Procedure: FIG. 8: Activity levels normalized to hGCase protein levels measured after treatment of H4 glioblastoma GBA-KO cells with hGCase molecules. Treatment concentration (hGCase protein): 1, 10 and 100 nM (100 nM not shown herein), respectively. Activity and protein amount measurement after 2 h of incubation. Activity measured with artificial substrate res-β-glc (20 μM); protein concentration determination via AlphaLISA (section 2.3.6). H4 wt cells (GCase levels normalized to 100%) and H4 GBA-KO cells (loss of GBA gene) served as control. ^1 GCase activity measured in H4 cells normalized to activity measured in H4 (wt) cells designated to 100% and normalized to protein amount. ^2 H4 glioblastoma cells with knock-out GBA gene.
as §1
as §2, with “H4 GBA-KO cells, which accumulate the natural substrate glucosylsphingosine (GlcSph) due to the loss of the GBA gene, were treated with 1, 10 and 100 nM of hGCase molecules, respectively.” left out

[4] = Activatability of hGCase mutants by phosphatidylserine; type: biochemical; details: 4 μM phosphatidylserine, 25 nM protein, 10 min pre-incubation at RT
Procedure: Negatively charged lipids as phosphatidylserine are known to stabilize and activate the enzyme usually in combination with Saposin C (SAP-2), since GCase is naturally interacting with the membrane of the lysosomes in vivo. For the assay, 25 nM protein and 4 μM phosphatidylserine (Avanti; 10 mM stock solution dissolved in chloroform) were tested.
After adding the lipid to the enzyme, the solution was pre-incubated for 10 min at RT before adding the substrate and initializing the enzymatic reaction. The hGCase activity without added phosphatidylserine was set to 100% relative enzyme activity. The increase in activity was expressed as X-fold the initial activity without activator.
Several physiological substances have been reported to stimulate the activity of glucocerebrosidase. GCase is naturally interacting with the membrane of the lysosomes in vivo, thus negatively charged lipids such as phosphatidylserine are known to stabilize and activate the enzyme alone or in combination with Saposin C (SAP-2) (Qi & Grabowski, 1998; Sun et al., 2002; Vaccaro et al., 1995). Thus, it is essential to preserve these properties when modifying the GCase enzyme structure. To this end, the effect of phosphatidylserine alone was evaluated as first approach. The activity levels with and without added phosphatidylserine are plotted in FIG. 6.
By translating the data into fold increase of the initial activity, a more conclusive statement can be drawn (FIG. 7).

Molecule | relative activity ([1]; pH 3.5, 20 mM citric acid buffer, highest activity = 100%) [%] | shape of pH spectrum ([1]; pH 3.5-8) | reduction in GlcSph levels (%) ([2]; 10 nM treatment) | reduction in GlcSph levels (fold) ([2]; 10 nM treatment) | GCase activity level normalized to H4 wt GCase activity (100%) and protein amount ([3]; 1 nM protein treatment) [%] | GCase activity level normalized to H4 wt GCase activity (100%) and protein amount ([3]; 10 nM protein treatment) [%] | phosphatidylserine activation, fold increase of initial activity [4] [fold] | loss of activity ([1]; pH 3.5, 20 mM citric acid buffer) [%] | reduction in GlcSph levels (%) ([2]; 1 nM treatment)
B1 | 80 | more bell-shaped pH spectrum | ~88 | 8.3 | ~4 | 26 | 6.5 |  | 
B2 |  |  | 97 |  | 4 | 44 | 11.5 | 40 | 82
